Results published in paper PMC7841792.

Substrate: C[C@H](O)C(=O)O
Assay: purified protein
Conditions: 20 mM HEPES pH 7.4, 50 μM Ampliflu Red, 0.1 U/mL HRP, mean ± SEM, n = 3, lactate enantiomer not given

B1: lactate oxidase (LOX, EC 1.1.3.2) (Aerococcus viridans ATCC 11563 = CCUG 4311) (protein)
chain: MNNNDIEYNAPSEIKYIDVVNTYDLEEEASKVVPHGGFNYIAGASGDEWTKRANDRAWKHKLLYPRLAQDVEAPDTSTEILGHKIKAPFIMAPIAAHGLAHTTKEAGTARAVSEFGTIMSISAYSGATFEEISEGLNGGPRWFQIYMAKDDQQNRDILDEAKSDGATAIILTADSTVSGNRDRDVKNKFVYPFGMPIVQRYLRGTAEGMSLNNIYGASKQKISPRDIEEIAGHSGLPVFVKGIQHPEDADMAIKRGASGIWVSNHGARQLYEAPGSFDTLPAIAERVNKRVPIVFDSGVRRGEHVAKALASGADVVALGRPVLFGLALGGWQGAYSVLDYFQKDLTRVMQLTGSQNVEDLKGLDLFDNPYGYEY
B1 gave a Km of 1620 ± 480 µM and a Vmax of 22 µmol/min/mg.
